# From patent publication US20180185504A1 (Regeneron, published 2018)
# T1: mouse PRLR with an HA tag on HEK293 cells (mouse, UniProt Q08501 20-608)
# T1 construct: whole, on cells; also called HEK293/mPRLR; rodent PRLR; not shown: HA tag
# T1 sequence (looked up): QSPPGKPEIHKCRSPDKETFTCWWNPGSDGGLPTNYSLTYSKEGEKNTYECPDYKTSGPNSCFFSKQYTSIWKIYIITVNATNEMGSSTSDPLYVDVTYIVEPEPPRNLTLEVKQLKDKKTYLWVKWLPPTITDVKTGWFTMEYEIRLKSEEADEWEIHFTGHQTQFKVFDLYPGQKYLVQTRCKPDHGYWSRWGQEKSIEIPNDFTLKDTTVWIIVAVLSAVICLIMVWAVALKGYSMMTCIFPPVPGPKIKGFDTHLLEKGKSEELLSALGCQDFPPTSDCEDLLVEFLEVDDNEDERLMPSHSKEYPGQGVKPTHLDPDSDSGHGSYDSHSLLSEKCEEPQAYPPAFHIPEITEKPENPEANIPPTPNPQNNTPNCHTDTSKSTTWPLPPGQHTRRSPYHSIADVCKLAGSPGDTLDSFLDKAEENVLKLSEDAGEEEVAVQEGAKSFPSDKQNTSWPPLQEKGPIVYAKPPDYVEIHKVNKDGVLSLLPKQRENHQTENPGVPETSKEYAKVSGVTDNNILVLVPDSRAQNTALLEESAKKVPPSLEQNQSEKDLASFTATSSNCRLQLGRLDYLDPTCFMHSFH
# Biological target: T1, mouse PRLR with an HA tag on HEK293 …
# Assay: FACS on HEK293/mPRLR cells
row,Binder,binding result
1,"H1H6807P (antibody, V domains shown) VH: QVQLVESGGGVVQPGRSLRLSCAASGFTFSDYNMHWVRQAPGKGLEWVAVIWYDGSNKHYADSVKGRFTISRDNSKNTLYLQMNSLRAEDTAVYYCARDGFTIFGMVLDYWGQGTLVTVSS VL: not shown",no binding
2,"H1H6803P (antibody, human IgG1, V domains shown) VH: EVQLVESGGGVVRPGGSLRLSCAASGFKFDDYGMTWVRHVPGKGLEWVSGINWNGGRTGYTDSVKGRFTISRDNAKNSLYLQMNSLRAEDTALYHCAGARRDAFDIWGQGTMVTVSS VL: DIQMTQSPSSLSASIGDRVTITCRASQNIIKYLNWYQQNAGKAPKLLIYTASSLQSGVPSRFSGSGSGTDFTLTISSLQPEDFATYYCQQSSSSPYTFGQGTKLEIK",no binding
3,"H1H6781P (antibody, human IgG1, V domains shown) VH: EVQLVESGGDLVQPGESLRLSCTASGFTFNSYEMNWVRQAPGKGLEWVSYISSSGGTKYYVDSVKGRFTISRDNAKKSLYLQMNSLRADDTALYYCARLNGVDVFDIWGQGTMVTVSS VL: DIQMTQSPSSLSASVGDRVTITCRASQDIFNYLAWFQQKPGKVPELLISAASTLQSGVPSRFSGSGSGTYFTLTISSLQPEDIATYYCQRYNSAPLTFGGGTKVEIK",no binding
4,"H1H6966N (antibody, human IgG1, V domains shown, Tested with human IgG1 Fc (H1H)) VH: QVQLVQSGAEVQKPGASVKVSCKVSGYTLTALSIHWVRQAPGKGLEWMGNFDPGDGETIHAQKFQGRVTMTGDTSTDTAYMELSSLRSEDTAVYYCVGVTFDYWGQGTLVTVSS VL: EIVMTQSPATLSVSPGERATLSCRASQSVASNLAWYQQKPGQAPRLLLYGASTRATGIPARFSGSGSGTEFTLTISSLQSEDFALYYCQHYNNWPLTFGGGTKVEIK",no binding
5,"H1H6967N (antibody, human IgG1, V domains shown, Tested with human IgG1 Fc (H1H)) VH: EVQLVESGGDLVHPGRSLRLSCAASGFPFDEYAMHWVRQVPGKGLEWVSGISWSNNNIGYADSVKGRFTISRDNAKNSLYLQMNSLRPEDTAFYYCAKSGIFDSWGQGTLVTVSS VL: EIVMTQSPATLSVSPGERATLSCRASQSVSRDLAWYQQKPGQAPRLLIHGASTRATGIPARFSGSGSGAEFTLIISSLQSEDFAVYYCQQYNNWPLTFGGGTKVEIK",no binding
6,"H1H6976N (antibody, human IgG1, V domains shown, Tested with human IgG1 Fc (H1H)) VH: EVQLLESGGGFVQPGGSLRLSCAASGFTFSSYAMSWVRQAPGKGLEWVSIISSNGRYTYYADSVKGRFTISRDNSKNTLYLQMNSLRAEDTAVYYCATVTGDWFDPWGQGTLVTVSS VL: DIQLTQSPSFLSASVGDRVTITCWASQDIDISLAWYQQKPGKAPKLLIYAASTLQSGVPSKFSGSGSGTDFTLTISSLQPEDFSTYYCQQLNSYPITFGQGTRLDIK",no binding
7,"H1H6797P (antibody, human IgG1, V domains shown) VH: EVQLVESGGGLVQPGGSLRLSCIVSGFTFSGSWMSWVRQLPGKGLEWVANIKEDGSDSYYVDSVEGRFTISRDNAKSSLYLQMNSLRVDDTAVYFCARARTVPLHYWGQGTLVTVSS VL: DIQMTQSPSTLSASVGDRVTITCRASQSINIWLAWYQQKPGKAPKLLIYRASYLESGVPSSFAGGGSGTEFTLTISSLQPDDFGTYYCQHYNSYPFTFGQGTKLEIK",no binding
8,"H1H6774P (antibody, human IgG1, V domains shown) VH: EVQLVESGGGLAQPGGSLRLSCVASGFTFSTYWMSWVRQAPGKGLDWVGNIKQDGSEQNYVDSVRGRFTISRDNAKNSLFLQMNSLRAEDTGVYYCATLLTKGDYWGQGTLVTVSS VL: DIQMTQSPSSLSASVGDSVTITCRASQDISNYLDWFQQKPGKAPKSLIYAASILQGGVPSRFSGSGYGTDFTLTISSLQPEDFATYYCRQYKTYPFTFGPGTKVDIK",no binding
9,"H1H6953N (antibody, human IgG1, V domains shown, Tested with human IgG1 Fc (H1H)) VH: EVQLLESGGGLVQPGGTLRLSCAASGFTFSAYAMSWVRQAPGKGLEWVSSINVRAGDTYYADSVKGRFTISRDNSKNTLFLLMNSLRAEDTAAYYCAKARYSSNWGFDFWGQGTLVTVSS VL: DIVMTQSPDSLTVSLGARTTINCQSSQTILHSSNNHNYLAWYQQKPGLPPKLLIYWSSTRESGVPDRFSGSGSGTDFTLTISSLQAEDVAIYYCQQYSNTPYTFGQGTKLEIN",no binding
10,"H1H6960N (antibody, human IgG1, V domains shown, Tested with human IgG1 Fc (H1H)) VH: EVQLVESGGGLVKPGGSLRLSCAASGITFSSYSMNWVRQAPGKGLEWVSSISTRSSLIHYADSVKGRFTISRDNAKNSLYLQMNSLRDEDTAVYYCARWDAAAAFDYWGQGTLVIVSS VL: DIQLTQSPSFLSASVGDRVTITCWASQGISSYLAWYQQKPGKAPKLLIYVASTLQSGVPSRFSGSGSGTEFTLTISSLQPEDFATYFCQQLNSYPLTFGGGTKVEIK",no binding

# Now from value to binder:
row,binding result,Binder
1,no binding,"H1H6793P (antibody, human IgG1, V domains shown) VH: EVQLVESGGGLVQPGGSLRLSCAASGFSFSIYAMSWFRQAPGKGLEWVSAINGRGDGTHYADSVKGRFTISRDNSKTTLYLQMSSLRAEDTAVYYCAKPVMSTNGFDIWGQGTMVTVSS VL: DIQMTQSPSTLSASVGDRVTITCRASQSISSWLAWYQLKPGKAPKLLIYKASNLESGVPSRFSGSGSGTEFTLTISSLQPDDFATYYCQQYNIYWTFGQGTKVEIK"
2,no binding,"H1H6800P (antibody, human IgG1, V domains shown) VH: EVQLVESGGGLVQPGRSLRLSCAASGFTFDGYAMHWVRQGPGKGLEWVSGISWYSDTLGYADSVKGRFTISRDNAKNSLYLQMNSLRTEDTAFYYCAKISSSGWAFDYWGQGTLVTVSS VL: EIVLTQSPGTLSLSPGERATLSCRASHSVSSAYLAWYQQKPGQTPRLLIYGTSSRATGIPDRFSGSGSGTDFTLTISRLEPEDFAVYYCQQYGSSPLFTFGPGTKVDIK"
3,no binding,"H1H6765P (antibody, human IgG1, V domains shown) VH: EVQLVESGGGVVRPGGSLRLSCVGSGFSFDDHGMNWVRQGPGKGLEWVSGFNWNGGSTNYAESVKGRFTISRDNARNSLFLQMNSLRAEDTALYYCVRGRSGWFNDAFDVWGPGTMVTVSS VL: EIVLTQSPGTLSLSPGERATLSCRASQTINSNYLAWYRQKPGQTPRLLIYGTSSRATGIPDRFSGSGSGTDFSLTISRLEPEDFAVFYCQQYAGLPTFGPGTKVDIK"
4,no binding,"H1H6959N2 (antibody, human IgG1, V domains shown, Tested with human IgG1 Fc (H1H)) VH: EVQLVESGGGLVQPGRSLRLSCAASGFTFDDYAMHWVRQAPGKGLEWVSGISWHSGIIGYADSVKGRFTISRDNAKNSLYLQMNSLRTEDAALYYCAKIGSYFYFDSWGQGTLVTVSS VL: EIVLTQSPGTLSLSPGERATLSCRASQSVSSNYLAWYQQKPGQAPRLLIYGASSRATGIPDRFSGSGSGTDFTLTISRLEPEDFAVYYCQQFGSSGYTFGQGTNLEIK"
5,no binding,"H1H6975N (antibody, human IgG1, V domains shown, Tested with human IgG1 Fc (H1H); also called H1H6975P) VH: EVHLVESGGGLVQPGGSLRLSCAASGFTFSSYEMNWVRQTPGKGLEWISHISSRSVIIYYADSVKGRFTISRDNAKNSLFLQMNSLRAEDTAVYFCAGITIFGIPEYWGQGTLVTVSS VL: EIVLTQSPATLSLSPGERATLSCRASQSVSSYFAWYQQKPGQAPRLLIYDASSRATGIPTRFSGSGSGTDFTLTISSLEPEDFAVYYCQQRSSWPITFGQGTRLEIK"
6,no binding,"H1H6795P (antibody, human IgG1, V domains shown) VH: QVQLVQSGAEVKKPGASVKVSCKASGYTFGTSGITWVRQAPGQGLEWMGWSSAYNGKTDYAQKFQDRVTMTTDTSTTTGYMEMRSLTSDDTAVYYCTTVVRRPFDFWGQGTLVTVSS VL: DIQMTQSPSSLSASVGDRVTITCRASQDINNFLAWFQQKPGKAPKSLIYAASSLQSGVPSKFSGGGSGTDFALTISSLQPEDFATYYCQQYSSYPITFGQGTRLEIK"
